In the supplement of paper PMC12636428:

What follows are sequences tested on Saccharomyces cerevisiae (assay: transcriptional activation domain activity (GFP:mCherry ratio, weighted mean of sorted bins, harmonized to initial dataset scale) (arbitrary fluorescence ratio units); higher = stronger transcriptional activation). Settings: beta-estradiol 1 µM; induction time 4 h.
How it was run: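 Each value is an activation activity: the read-weighted mean of bin median fluorescence, averaged across barcodes, then mapped linearly to the initial dataset scale. The tiles, fused to an estradiol-inducible synthetic transcription factor, sat at the yeast URA3 locus in GFP-reporter diploids. Cells spent 4 hours at 30 °C in SC with 1 uM beta-estradiol before sorting into 8 GFP:mCherry bins, and tiles below 50 reads were removed.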
For “ITGTAYLGKFLRNTLGYDLEVFHAELMVKADIFSLNPHEIMNLIVILFHLMLY”, the “transcriptional activation domain activity” value was 57900.
With “RLIYGDYVSYHFLKMLHKVHDQISLAYIHHGLELVMWSCKVLVLLFKQLFESY” the “transcriptional activation domain activity” value was 67900.
In the case of “DIDMEDVDGDAAPSAKKAKASKKRKKDAESDGEQEKACLSFRTILLHSLIFIQ”, the “transcriptional activation domain activity” value is reported as 41900.
“SSIVYLHPPLLHCLFLFPLLLLRLLAILAFSFLYLINLVLGTLGSCFSFFFRD” was tested, and the “transcriptional activation domain activity” value was 34600.
With “MNQTSCFFSAFFLFALFLSFPSFLLPSFFLLFLLFYFFPSYLLLCLFSLIFYK” the “transcriptional activation domain activity” value was 57200.
In the case of “NMSPNNDDNSIDTASTNTTNRKKNIDENIKNNNDIINDIIFNTNLANNLSNYN”, the “transcriptional activation domain activity” value is reported as 51000.
With “KNNLWYLPLYLFYLSRVTPAATVVPVFLFFFIFFYFFIFIFYLFLFYLSFSIF” the “transcriptional activation domain activity” value was 49900.
For “FGFVFFVASLENGHYKFQFTNFAWTHMALYLIVCQAHFVMNNIFEGMIWFFLP”, the “transcriptional activation domain activity” value was 66100.
For “KRGRPAKKAQEEVEVEEAAPAKRGRKAVAKEEPAKKETKAKPTTKSRGTKRAA”, the “transcriptional activation domain activity” value was 38600.
“PFAFLLLLLFPLVLFLPALLLLFLPLLPLLPLLLWILWIQTLQSLFSFPDISD” was tested, and the “transcriptional activation domain activity” value was 46900.
For “RTTALGVWFLLIQSLWYFTFGALYIWFFCHTWEYLSTLLVFDYLLRFILCLMF”, the “transcriptional activation domain activity” value was 68100.
“LLVLLVFVADTLHMMGTTQFYWSMLVLCRRSDAAMCEAGLSWGSSISFPMNYV” was tested, and the “transcriptional activation domain activity” value was 42600.
“GGGNRGRWPGDDSSDSSSSENERRGRRERRRRHRRRSASPDARRSGKGDAPKQ” was tested, and the “transcriptional activation domain activity” value was < 6570.
With “MDGVLKLPFLSFLFPFFLFFSSPPLFSPCFFPLFLSFFAVIAFFPFLCFCLPV” the “transcriptional activation domain activity” value was 29300.
With “HIHCFVALFLVMPFFVLVFIVFLGGCNYCLQKKLVLPSLLLTFVIYGGGRLGF” the “transcriptional activation domain activity” value was 37900.
With “MSGQLPAGAPRASPADASPTGPRAPTSSRPACLSCHTHKKRCVWKSAAPGTPC” the “transcriptional activation domain activity” value was 69400.
With “MTNRLHIVCHICVFYGYILMFQAITSYHYFILLCILILILHLLTFILVYLYKD” the “transcriptional activation domain activity” value was 38400.
“MVVVSCLSGAFLFFLFVHVVSGALFTYYSLLSLIFSLYHSILFVCWADLFFFF” was tested, and the “transcriptional activation domain activity” value was 57100.
“IGVRFDTSIKFINGHLERFLAYLGDPLLKQLCSGEILRRLLLLIIDPPILWND” was tested, and the “transcriptional activation domain activity” value was 79200.
With “TTLVNTTAPYFPYSFSALEGSTFNGFSFDQTMFDLFLEVWEQTDPLMNYLFDF” the “transcriptional activation domain activity” value was 162000.
“GLFASCWQRFAQAYRPCIGLTRIFVLCLLEVVLWLKGLEILFWFFLWCWCTTT” was tested, and the “transcriptional activation domain activity” value was 50200.
For “QKMQKSGGFVNINVFGFVFIIAVSCVVVTLDITLLKFLIFISEFQRLTHLSAR”, the “transcriptional activation domain activity” value was 45400.
For “DLDILLAKLLEELEDSLQALKRLVVSAFLRFLTGVLYEEFMEAIRPNPHMDNE”, the “transcriptional activation domain activity” value was 58200.
With “IWGSANTLPKYLYFISRYFGLLGQLVVSTNLVPMFCFDYLVWSFGFLFTLILS” the “transcriptional activation domain activity” value was 87200.
“SRLRKTGTPTSSQHSSTAFSGYIDDPFNLNEILPLPASDFKLNTVTNLNEIDF” was tested, and the “transcriptional activation domain activity” value was 106000.
In the case of “PHGLLLPLLAHLFSLVLKISFLFCFEYKLAIFIFALVWQSLVVASLTCGFVFV”, the “transcriptional activation domain activity” value is reported as 55700.
“SSVVLFVFFLLFLLFSLFFYPTWLLPCLIFLLNDYLLFFLLFFCRVSCSFAPL” was tested, and the “transcriptional activation domain activity” value was 45800.
For “VDASTIARLSSPELGAREQLRQEEERRRKIERRARRRERRERERSSALLHLTG”, the “transcriptional activation domain activity” value was 33400.
“MVQCASTECSNEGVSQCGRCKQRFYCGAECQQKDWPAHKKNCKRPNAPPPQMS” was tested, and the “transcriptional activation domain activity” value was 17500.
In the case of “THHAFPLRLLVAIVVLLDCHSLLQIALGTCTWAISYHVRPFALTTVILCCSIT”, the “transcriptional activation domain activity” value is reported as 41300.
In the case of “MGLLVIMEVVFCVINLDALFFFLLSLLLLFLTFFSFFRIMMEFIVFLHVSFYF”, the “transcriptional activation domain activity” value is reported as 61400.
For “LLKNNILKWMCLVFRFVTRRVRFTYLTLPLATRCVGQGLVYIIRIIQDGHSYI”, the “transcriptional activation domain activity” value was 43100.
In the case of “AVGRGEFAQPVLVPGGGVAIVAIGRARWIRDEEKNGERRYRVGVSWSADHRVV”, the “transcriptional activation domain activity” value is reported as 40100.
In the case of “YSILLSVILIFWWSVFTYYPSHLSYLSQRFSYYVWGDDSIDAVTVFKAWVYAH”, the “transcriptional activation domain activity” value is reported as 61800.
With “MTDRCRVRCTKLIIIIKGIFFWVSLVSLLFFFLLILSAFSFFLLLLLYYLFTI” the “transcriptional activation domain activity” value was 46200.
In the case of “MAAGFFFFFFLLSFPLFLSFFFCFPFFFSLPSGISFCLPFAPGVVSSFPFPTR”, the “transcriptional activation domain activity” value is reported as 53800.
With “LFLFFLFVFCAYPFWLVRCFLLALLLSLKDLVQIFLFLITTLCCDISEMWSFV” the “transcriptional activation domain activity” value was 42800.
For “LIPTEGGELALGGAPLEDEDESTSDEEETPKASFQARLERLRKRMDGRPIKDI”, the “transcriptional activation domain activity” value was 26300.
“LCLRLMIKVAFSGEDTEVDFSMLQVAVRYILGIHGVNTLAPAWTFWGKCLDSM” was tested, and the “transcriptional activation domain activity” value was 37000.
For “MSFKKDEETGVSSFYQDKTSVIQEARVFNETPISPRKCRILLTKVIYLLYSGE”, the “transcriptional activation domain activity” value was 44100.
For “EATEPAEKPKRKRGRPPGSKNKKTLAAQGGTGEASAAEPPPKRPRGRPPKRKP”, the “transcriptional activation domain activity” value was 34600.
With “MDRVSIRFTLAISLADLGQAVLHMIGSKFSWLSCGLLLGISRFLCLFYIFLSV” the “transcriptional activation domain activity” value was 57100.
With “MCKKGKGVAIGPLSLSWFFNLSLVIFSLLSSLQSLWFLPWPLNFVLMVPVHFV” the “transcriptional activation domain activity” value was 79900.
With “GAKVRSWPLTYIYTLYFFMTYFIFYRNLFARLQDPKQVLYLQLGLSMWIVFIY” the “transcriptional activation domain activity” value was 35200.
In the case of “MVDSRMLGETETGLFLSFIFFRIIFILVLPYLASCSKYVHLLFLYCFLLLRFF”, the “transcriptional activation domain activity” value is reported as 54600.
With “AALLHLIILISFGNLLLVPKCCLLVHTLRFWCRVFFLNPSLVLSFALSTFIYS” the “transcriptional activation domain activity” value was 58900.
“FSLGLRTPLDHLLLAFFVLCGLTRLARFNVTVAMLPKDATGKSQYFEGTPIPT” was tested, and the “transcriptional activation domain activity” value was 73300.
“ILLPIFGLANRDKNVELMRWALKQCNRTLRRKRAHIWYFSRWLMRPMLPQQRS” was tested, and the “transcriptional activation domain activity” value was 66600.
In the case of “DIEQQVRFRLTQIYFLILKLDAFFHFVLCVFYAVVMTQEKYYTLWGVIDRKFI”, the “transcriptional activation domain activity” value is reported as 79400.
“MPLPPGISYILKRAPSLLLPGVITYFASKYVVNYCRLTLPRWILCALVLLAKP” was tested, and the “transcriptional activation domain activity” value was 86300.
With “GDQGAGRRDRRRRLGHRGGGEGRGREEGEEGRRDGEGRHRGEGGREEGEEEDR” the “transcriptional activation domain activity” value was 14300.
For “EARTLVMHAQQGFSFHFGCQMSLSGMMLLSYILLLPPIFTGYQLLWLLWIVFP”, the “transcriptional activation domain activity” value was 61400.
With “GEEKPKPVRRQRQPKDPNAPPPQRKKRKTAAEKAAEAAAAASTPTPAPAPAPA” the “transcriptional activation domain activity” value was 13600.
“KWVAHSVVEKCVLLLILWHRYAMDVVRECSEAWEKLITGKTAPNGISTTNLTV” was tested, and the “transcriptional activation domain activity” value was 31500.
“MCLTGLWWFVCKFAFSFFLSAGLFFLIHPPLFLILLPLSSFFLFLSLAAASGF” was tested, and the “transcriptional activation domain activity” value was 31400.
“FVTFVFCPPLLAFAHRFGRKVLKRIILALLAFHLVIVLLSSAIMSPYDELHPK” was tested, and the “transcriptional activation domain activity” value was 34300.
“GNGGAGAGAGGANANANANANAGNGAAAAGGNNAATAATGGGKAAKAAAAAAA” was tested, and the “transcriptional activation domain activity” value was 22600.
In the case of “SGSNINNNDNVKLPSNFKNYYDPPMSSLDISMDVPDIFGSLDFFDYDLLFQND”, the “transcriptional activation domain activity” value is reported as 179000.
In the case of “EKAGEEEKAGEEEKAAEEEKSAEEEKAAKEEEMKAMEKSKAEKEASSEEPKAE”, the “transcriptional activation domain activity” value is reported as 35700.
With “MWLFLLMFYIVLWLRKAGAFISSSFSSFSVLSFSYLFLCGYLPFSFLFLTFSL” the “transcriptional activation domain activity” value was 54200.
With “RIVIPIRLVLLVFVTMASYLLFAMIIYACQNEWLYPFLSWDQGPVAVLWYLLL” the “transcriptional activation domain activity” value was 42800.
In the case of “MEWMGGWLVLGGWIYLFCSVMFKLDRLVVFLEVFFFYLLLCVIVLVMGLVVML”, the “transcriptional activation domain activity” value is reported as 38800.
In the case of “VKWAKETRGEQRKRLHIVPVGIVYTNKSQYQSRVSSRVHICVHVEAFVQERTS”, the “transcriptional activation domain activity” value is reported as 52100.
With “TADTAAASTSQPKLAQDQQQATDGENSEKRKPGRPRGSRNRKPRASVGSATKA” the “transcriptional activation domain activity” value was 37800.
In the case of “MPFNLPPRAIGVATRVLEELGLFNIYKSCIDTKILCIQRFVRLFAYGGSTLVL”, the “transcriptional activation domain activity” value is reported as 44200.
“KKKEEGKKRKRKRGKGRGRREKEERRKRGKEKGRRKERGKGKKKKESWGWRKG” was tested, and the “transcriptional activation domain activity” value was 42000.
“TRSKKSAPRTSESSEDEEQRPSSRPSSRASRPASRASASRKRSDSTGTAGGGE” was tested, and the “transcriptional activation domain activity” value was < 6570.
In the case of “AMAEKAAEEKPAAKKRGRPPKGPTMVEVVVEAPPAKKRGRPAKEDGAAAAATA”, the “transcriptional activation domain activity” value is reported as 20000.
For “MADTSTDGGPERTPVAAPISIKACDQCRARKVRCDKTSPCANCRKHNVKCTTS”, the “transcriptional activation domain activity” value was 19000.
For “VFTSLHTCRFAAPHLWWLIFSILCLQYLIILEVFVIAMLVFIIGPLIYLFWNI”, the “transcriptional activation domain activity” value was 42600.
In the case of “AILKCIACHNGAMDSVRLLSVLTVPSGPALAHVHLCLLRYLKNRVISEQFGPS”, the “transcriptional activation domain activity” value is reported as 21100.
With “MKFLFILCCHILPYVPIFYLMSLSSIFLHFTLLFIYLITLFYTFAYIFIFSFY” the “transcriptional activation domain activity” value was 50400.
With “VKGAGKGKGKDDGKKNSMVLLLLCSLLSVNFMLGNYAPQLWILLLVPMSLAAP” the “transcriptional activation domain activity” value was 45000.
For “MSRVYNLFLKAFRYKLPSLYQHIHVILNLPPSMYLEAMFLTLFTLHCPIDVAS”, the “transcriptional activation domain activity” value was 53400.
